{"source": "patent US20170320946A1", "key": {"[1]": {"molecular_target": "huTREM-1 expressed as amino-terminal FLAG peptide fusion protein on transfected COS-7 or 293 cells (human) (UniProt Q9NP99)", "experiment": "FACS of 293 cells transiently transfected with TREM-1-FLAG, stained with anti-FLAG mAb M2; isotype-matched control set to the lower quadrant"}, "[2]": {"molecular_target": "huTREM-2 expressed as amino-terminal FLAG peptide fusion protein on transfected 293 cells (human) (UniProt Q9NZC2)", "experiment": "FACS of 293 cells transiently transfected with TREM-2-FLAG, stained with anti-FLAG mAb M2; isotype-matched control set to the lower quadrant"}}, "data": [{"substance": "ANTI-FLAG mAb M2 (antibody)", "values": [{"measurement": "percentage of cells stained (upper right quadrant)", "setting": "[1]", "value": 21.5, "unit": "%"}, {"measurement": "percentage of cells stained (upper right quadrant)", "setting": "[2]", "value": 17.9, "unit": "%"}]}]}
